Columns and labels:
[1] = target: KEAP1 (wild-type full-length), His-tagged (human) (UniProt Q14145); experiment: AlphaScreen; 1228.8 nM FLAG-NRF2, 150 nM His-KEAP1; signal against NRF2 only; control for I86V
[2] = target: KEAP1 (wild-type full-length), His-tagged (human) (UniProt Q14145); experiment: AlphaScreen; FLAG-NRF2 wt isoform 1 4.8 nM, His-KEAP1 150 nM; Rep 2; positive control for Q75R
[3] = target: KEAP1 (wild-type full-length), His-tagged (human) (UniProt Q14145); experiment: AlphaScreen; 19.2 nM FLAG-NRF2, 150 nM His-KEAP1; Rep 2; control for I86V
[4] = target: KEAP1 (wild-type full-length), His-tagged (human) (UniProt Q14145); experiment: AlphaScreen; NRF2 wt isoform 1 38.4 nM, KEAP1 150 nM; signal against NRF2-only control; control for Q75R
[5] = target: KEAP1 (wild-type full-length), His-tagged (human) (UniProt Q14145); experiment: AlphaScreen; FLAG-NRF2 wt isoform 1 38.4 nM, His-KEAP1 150 nM; Rep 1; positive control for Q75R
[6] = target: KEAP1 (wild-type full-length), His-tagged (human) (UniProt Q14145); experiment: AlphaScreen; 38.4 nM FLAG-NRF2, 150 nM His-KEAP1; Rep 1; control for I86V
[7] = target: KEAP1 (wild-type full-length), His-tagged (human) (UniProt Q14145); experiment: AlphaScreen; 1228.8 nM FLAG-NRF2, 150 nM His-KEAP1; Rep 2; control for I28V
[8] = target: KEAP1 (wild-type full-length), His-tagged (human) (UniProt Q14145); experiment: AlphaScreen; FLAG-NRF2 wt isoform 1 19.2 nM, His-KEAP1 150 nM; Repeat 1; positive control for Q75R
[9] = target: KEAP1 (wild-type full-length), His-tagged (human) (UniProt Q14145); experiment: AlphaScreen; NRF2 wt isoform 1 614.4 nM, KEAP1 150 nM; signal against NRF2-only control; control for Q75R
[10] = target: KEAP1 (wild-type full-length), His-tagged (human) (UniProt Q14145); experiment: AlphaScreen; 38.4 nM FLAG-NRF2, 150 nM His-KEAP1; Rep 3; control for I86V
[11] = target: KEAP1 (wild-type full-length), His-tagged (human) (UniProt Q14145); experiment: AlphaScreen; 38.4 nM FLAG-NRF2, 150 nM His-KEAP1; Rep 2; control for I86V
[12] = target: KEAP1 (wild-type full-length), His-tagged (human) (UniProt Q14145); experiment: AlphaScreen, all variants on one plate; upper condition (38.4 nM NRF2), KEAP1 150 nM; the reference itself
[13] = target: KEAP1 (wild-type full-length), His-tagged (human) (UniProt Q14145); experiment: AlphaScreen; 1228.8 nM FLAG-NRF2, 150 nM His-KEAP1; signal against NRF2 only; control for I28V
[14] = target: KEAP1 (wild-type full-length), His-tagged (human) (UniProt Q14145); experiment: AlphaScreen; 9.6 nM FLAG-NRF2, 150 nM His-KEAP1; against wild-type NRF2 isoform 1 = 100%
[15] = target: KEAP1 (wild-type full-length), His-tagged (human) (UniProt Q14145); experiment: AlphaScreen; 76.8 nM FLAG-NRF2, 150 nM His-KEAP1; signal against NRF2 only
[16] = target: KEAP1 (wild-type full-length), His-tagged (human) (UniProt Q14145); experiment: AlphaScreen; 9.6 nM FLAG-NRF2, 150 nM His-KEAP1; Repeat 2 (same value as in Table 27)
[17] = target: KEAP1 (wild-type full-length), His-tagged (human) (UniProt Q14145); experiment: AlphaScreen; FLAG-NRF2 I86V 153.6 nM, His-KEAP1 150 nM; Rep 3
[18] = target: KEAP1 (wild-type full-length), His-tagged (human) (UniProt Q14145); experiment: AlphaScreen; NRF2 I86V 9.6 nM, KEAP1 150 nM; relative to wild-type NRF2 isoform 1 (100 %)
[19] = target: KEAP1 (wild-type full-length), His-tagged (human) (UniProt Q14145); experiment: AlphaScreen; FLAG-NRF2 I86V 1228.8 nM, His-KEAP1 150 nM; Rep 2
[20] = target: KEAP1 (wild-type full-length), His-tagged (human) (UniProt Q14145); experiment: AlphaScreen; NRF2 I86V 307.2 nM, KEAP1 150 nM; signal against NRF2-only control
[21] = target: KEAP1 (wild-type full-length), His-tagged (human) (UniProt Q14145); experiment: AlphaScreen; NRF2 Q75R 153.6 nM, KEAP1 150 nM; signal against NRF2-only control
[22] = target: KEAP1 (wild-type full-length), His-tagged (human) (UniProt Q14145); experiment: AlphaScreen; NRF2 Q75R 4.8 nM, KEAP1 150 nM; signal against NRF2-only control
[23] = target: KEAP1 (wild-type full-length), His-tagged (human) (UniProt Q14145); experiment: AlphaScreen; NRF2 Q75R 2.4 nM, KEAP1 150 nM; signal against NRF2-only control
[24] = target: KEAP1 (wild-type full-length), His-tagged (human) (UniProt Q14145); experiment: AlphaScreen; FLAG-NRF2 Q75R 614.4 nM, His-KEAP1 150 nM; Rep 1
[25] = target: KEAP1 (wild-type full-length), His-tagged (human) (UniProt Q14145); experiment: AlphaScreen; FLAG-NRF2 Q75R 38.4 nM, His-KEAP1 150 nM; Repeat 2
[26] = target: KEAP1 (wild-type full-length), His-tagged (human) (UniProt Q14145); experiment: AlphaScreen; FLAG-NRF2 Q75R 2.4 nM, His-KEAP1 150 nM; Rep 1
[27] = target: KEAP1 (wild-type full-length), His-tagged (human) (UniProt Q14145); experiment: AlphaScreen; NRF2 Q75R 76.8 nM, KEAP1 150 nM; signal against NRF2-only control

Sequence of KEAP1 (wild-type full-length), His-tagged (human) (Q14145 2-624 limits assumed): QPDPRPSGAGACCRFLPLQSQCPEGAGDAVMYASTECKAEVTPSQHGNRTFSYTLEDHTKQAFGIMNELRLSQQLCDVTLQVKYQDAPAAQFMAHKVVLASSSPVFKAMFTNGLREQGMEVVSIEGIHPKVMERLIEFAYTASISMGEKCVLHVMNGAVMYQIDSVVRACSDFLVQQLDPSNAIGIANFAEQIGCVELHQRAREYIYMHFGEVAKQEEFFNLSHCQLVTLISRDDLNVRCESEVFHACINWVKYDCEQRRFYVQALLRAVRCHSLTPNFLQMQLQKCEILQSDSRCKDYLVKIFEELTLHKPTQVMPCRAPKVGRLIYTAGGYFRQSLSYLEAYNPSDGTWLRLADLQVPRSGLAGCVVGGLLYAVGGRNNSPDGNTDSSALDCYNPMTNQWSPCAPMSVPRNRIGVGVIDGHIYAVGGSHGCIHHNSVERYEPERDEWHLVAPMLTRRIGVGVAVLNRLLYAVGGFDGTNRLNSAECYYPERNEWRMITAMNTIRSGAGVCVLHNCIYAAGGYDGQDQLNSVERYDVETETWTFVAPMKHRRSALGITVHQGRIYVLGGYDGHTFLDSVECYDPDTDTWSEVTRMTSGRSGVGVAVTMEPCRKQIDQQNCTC

B1: NRF2 isoform 1 (wild-type full-length), FLAG-tagged (protein)
chain: MMDLELPPPGLPSQQDMDLIDILWRQDIDLGVSREVFDFSQRRKEYELEKQKKLEKERQEQLQKEQEKAFFAQLQLDEETGEFLPIQPAQHIQSETSGSANYSQVAHIPKSDALYFDDCMQLLAQTFPFVDDNEVSSATFQSLVPDIPGHIESPVFIATNQAQSPETSVAQVAPVDLDGMQQDIEQVWEELLSIPELQCLNIENDKLVETTMVPSPEAKLTEVDNYHFYSSIPSMEKEVGNCSPHFLNAFEDSFSSILSTEDPNQLTVNSLNSDATVNTDFGDEFYSAFIAEPSISNSMPSPATLSHSLSELLNGPIDVSDLSLCKAFNQNHPESTAEFNDSDSGISLNTSPSVASPEHSVESSSYGDTLLGLSDSEVEELDSAPGSVKQNGPKTPVHSSGDMVQPLSPSQGQSTHVHDAQCENTPEKELPVSPGHRKTPFTKDKHSSRLEAHLTRDELRAKALHIPFPVEKIINLPVVDFNEMMSKEQFNEAQLALIRDIRRRGKNKVAAQNCRKRKLENIVELEQDLDHLKDEKEKLLKEKGENDKSLHLLKKQLSTLYLEVFSMLRDEDGKPYSPSEYSLQQTRDGNVFLVPKSKKPDVKKN
S/N [1]: 1 | A-counts (NRF2 plus KEAP1) [2]: 754 A-counts | A-counts [3]: 3270 A-counts | S/N [4]: 2.8 | A-counts (NRF2 plus KEAP1) [5]: 1480 A-counts | A-counts [6]: 3100 A-counts | A-counts [7]: 1520 A-counts | A-counts (NRF2 plus KEAP1) [8]: 1360 A-counts | S/N [9]: 1 | A-counts [10]: 3130 A-counts | A-counts [11]: 2850 A-counts | % Disruption in Binding [12]: 0% | S/N [13]: 1

B2: NRF2 isoform 1 (I28V full-length), FLAG-tagged (protein)
chain: MMDLELPPPGLPSQQDMDLIDILWRQDVDLGVSREVFDFSQRRKEYELEKQKKLEKERQEQLQKEQEKAFFAQLQLDEETGEFLPIQPAQHIQSETSGSANYSQVAHIPKSDALYFDDCMQLLAQTFPFVDDNEVSSATFQSLVPDIPGHIESPVFIATNQAQSPETSVAQVAPVDLDGMQQDIEQVWEELLSIPELQCLNIENDKLVETTMVPSPEAKLTEVDNYHFYSSIPSMEKEVGNCSPHFLNAFEDSFSSILSTEDPNQLTVNSLNSDATVNTDFGDEFYSAFIAEPSISNSMPSPATLSHSLSELLNGPIDVSDLSLCKAFNQNHPESTAEFNDSDSGISLNTSPSVASPEHSVESSSYGDTLLGLSDSEVEELDSAPGSVKQNGPKTPVHSSGDMVQPLSPSQGQSTHVHDAQCENTPEKELPVSPGHRKTPFTKDKHSSRLEAHLTRDELRAKALHIPFPVEKIINLPVVDFNEMMSKEQFNEAQLALIRDIRRRGKNKVAAQNCRKRKLENIVELEQDLDHLKDEKEKLLKEKGENDKSLHLLKKQLSTLYLEVFSMLRDEDGKPYSPSEYSLQQTRDGNVFLVPKSKKPDVKKN
Binding Percentage (%) [14]: 77.6% | S/N [15]: 2.2 | A-counts [16]: 1560 A-counts

B3: NRF2 isoform 1 (I86V full-length), FLAG-tagged (protein)
chain: MMDLELPPPGLPSQQDMDLIDILWRQDIDLGVSREVFDFSQRRKEYELEKQKKLEKERQEQLQKEQEKAFFAQLQLDEETGEFLPVQPAQHIQSETSGSANYSQVAHIPKSDALYFDDCMQLLAQTFPFVDDNEVSSATFQSLVPDIPGHIESPVFIATNQAQSPETSVAQVAPVDLDGMQQDIEQVWEELLSIPELQCLNIENDKLVETTMVPSPEAKLTEVDNYHFYSSIPSMEKEVGNCSPHFLNAFEDSFSSILSTEDPNQLTVNSLNSDATVNTDFGDEFYSAFIAEPSISNSMPSPATLSHSLSELLNGPIDVSDLSLCKAFNQNHPESTAEFNDSDSGISLNTSPSVASPEHSVESSSYGDTLLGLSDSEVEELDSAPGSVKQNGPKTPVHSSGDMVQPLSPSQGQSTHVHDAQCENTPEKELPVSPGHRKTPFTKDKHSSRLEAHLTRDELRAKALHIPFPVEKIINLPVVDFNEMMSKEQFNEAQLALIRDIRRRGKNKVAAQNCRKRKLENIVELEQDLDHLKDEKEKLLKEKGENDKSLHLLKKQLSTLYLEVFSMLRDEDGKPYSPSEYSLQQTRDGNVFLVPKSKKPDVKKN
A-counts (NRF2 plus KEAP1) [17]: 2500 A-counts | Binding Percentage [18]: 99.1% | A-counts (NRF2 plus KEAP1) [19]: 1580 A-counts | S/N [20]: 1.3

B4: NRF2 isoform 1 (Q75R full-length), FLAG-tagged (protein)
chain: MMDLELPPPGLPSQQDMDLIDILWRQDIDLGVSREVFDFSQRRKEYELEKQKKLEKERQEQLQKEQEKAFFAQLRLDEETGEFLPIQPAQHIQSETSGSANYSQVAHIPKSDALYFDDCMQLLAQTFPFVDDNEVSSATFQSLVPDIPGHIESPVFIATNQAQSPETSVAQVAPVDLDGMQQDIEQVWEELLSIPELQCLNIENDKLVETTMVPSPEAKLTEVDNYHFYSSIPSMEKEVGNCSPHFLNAFEDSFSSILSTEDPNQLTVNSLNSDATVNTDFGDEFYSAFIAEPSISNSMPSPATLSHSLSELLNGPIDVSDLSLCKAFNQNHPESTAEFNDSDSGISLNTSPSVASPEHSVESSSYGDTLLGLSDSEVEELDSAPGSVKQNGPKTPVHSSGDMVQPLSPSQGQSTHVHDAQCENTPEKELPVSPGHRKTPFTKDKHSSRLEAHLTRDELRAKALHIPFPVEKIINLPVVDFNEMMSKEQFNEAQLALIRDIRRRGKNKVAAQNCRKRKLENIVELEQDLDHLKDEKEKLLKEKGENDKSLHLLKKQLSTLYLEVFSMLRDEDGKPYSPSEYSLQQTRDGNVFLVPKSKKPDVKKN
S/N [21]: 1.5 | S/N [22]: 2.3 | S/N [23]: 2 | A-counts (NRF2 plus KEAP1) [24]: 855 A-counts | A-counts (NRF2 plus KEAP1) [25]: 1280 A-counts | A-counts (NRF2 plus KEAP1) [26]: 588 A-counts | S/N [27]: 1.8

— patent US20250352667A1
